Data taken from the supplement of paper PMC9112550, “Optimization of the antimicrobial peptide Bac7 by deep mutational scanning” (BMC Biology, 2022).

System: Escherichia coli TOP10
Test: shrunken log2 fold change of peptide-encoding DNA abundance (4.5 h post-induction vs induction); higher = less antimicrobial activity (less host growth inhibition)
Settings: time post-induction: 4.5 h; library: site-saturation at positions 5, 18, 19, 20
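Also: peptides expressed intracellularly from a pBAD plasmid library in pooled LB shake-flask culture, induced with 0.3% L-arabinose, DNA abundance read by NGS, three biological replicates, DESeq2 with apeglm shrinkage.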

Sequence	shrunken log2 fold change
RRIRHRPPRLPRPRPRPTIDPRP	-0.252
RRIRSRPPRLPRPRPRPCQLPRP	-0.163
RRIRVRPPRLPRPRPRPQKAPRP	-0.0576
RRIRRRPPRLPRPRPRPLMKPRP	-0.12
RRIRVRPPRLPRPRPRPCYTPRP	-0.498
RRIRERPPRLPRPRPRPFSMPRP	-0.366
RRIRVRPPRLPRPRPRPCSQPRP	-0.0327
RRIRDRPPRLPRPRPRPYYTPRP	-0.817
RRIRCRPPRLPRPRPRPRFLPRP	-0.232
RRIRCRPPRLPRPRPRPQEKPRP	0.0587
RRIRVRPPRLPRPRPRPRHVPRP	0.0785
RRIRMRPPRLPRPRPRPKDSPRP	1.66
RRIRRRPPRLPRPRPRPMMDPRP	-0.00156
RRIRHRPPRLPRPRPRPKSYPRP	-0.245
RRIRSRPPRLPRPRPRPMIAPRP	0.0435
RRIRTRPPRLPRPRPRPVWVPRP	-0.0284
RRIRYRPPRLPRPRPRPNAMPRP	-0.166
RRIRERPPRLPRPRPRPQILPRP	-0.179
RRIRRRPPRLPRPRPRPQFHPRP	-0.133
RRIRLRPPRLPRPRPRPMTMPRP	0.024
RRIRPRPPRLPRPRPRPFWVPRP	0.0111
RRIRPRPPRLPRPRPRPEDTPRP	0.174
RRIRDRPPRLPRPRPRPCVKPRP	-0.161
RRIRNRPPRLPRPRPRPSCNPRP	-0.485
RRIRGRPPRLPRPRPRPIETPRP	0.312

Sequence	shrunken log2 fold change
RRIRQRPPRLPRPRPRPAALPRP	0.247
RRIRPRPPRLPRPRPRPGWCPRP	0.072
RRIRSRPPRLPRPRPRPLMCPRP	-0.471
RRIRHRPPRLPRPRPRPAAMPRP	0.191
RRIRERPPRLPRPRPRPYEMPRP	-1.05
RRIRDRPPRLPRPRPRPDTTPRP	0.345
RRIRYRPPRLPRPRPRPFWEPRP	0.13
RRIRKRPPRLPRPRPRPQSCPRP	-0.0373
RRIRERPPRLPRPRPRPGSDPRP	-0.369
RRIRLRPPRLPRPRPRPNGDPRP	-0.00192
RRIRKRPPRLPRPRPRPWLEPRP	-0.00226
RRIRDRPPRLPRPRPRPPGKPRP	0.176
RRIRQRPPRLPRPRPRPVFYPRP	-0.147
RRIRQRPPRLPRPRPRPTHKPRP	0.0649
RRIRSRPPRLPRPRPRPRAHPRP	0.409
RRIRRRPPRLPRPRPRPATHPRP	0.434
RRIRSRPPRLPRPRPRPKEPPRP	-0.0411
RRIRNRPPRLPRPRPRPISLPRP	-0.0292
RRIRWRPPRLPRPRPRPVETPRP	-0.0256
RRIRDRPPRLPRPRPRPHQYPRP	0.0144
RRIRSRPPRLPRPRPRPNCFPRP	0.0876
RRIRIRPPRLPRPRPRPDLPPRP	-0.334
RRIRTRPPRLPRPRPRPGMRPRP	0.744
RRIRMRPPRLPRPRPRPPTMPRP	0.271
RRIRWRPPRLPRPRPRPHWPPRP	0.248

Sequence	shrunken log2 fold change
RRIRWRPPRLPRPRPRPVMGPRP	0.37
RRIRCRPPRLPRPRPRPAWDPRP	0.235
RRIRARPPRLPRPRPRPSQYPRP	-0.00629
RRIRNRPPRLPRPRPRPPCLPRP	-0.236
RRIRRRPPRLPRPRPRPMHNPRP	0.384
RRIRHRPPRLPRPRPRPPSPPRP	0.169
RRIRGRPPRLPRPRPRPKSIPRP	-0.0446
RRIRKRPPRLPRPRPRPAYIPRP	0.0173
RRIRKRPPRLPRPRPRPCESPRP	-0.0138
RRIRVRPPRLPRPRPRPRARPRP	0.737
RRIRFRPPRLPRPRPRPMVSPRP	-0.144
RRIRERPPRLPRPRPRPSTVPRP	-0.0579
RRIRIRPPRLPRPRPRPYIEPRP	-0.266
RRIRYRPPRLPRPRPRPLGEPRP	-0.172
RRIRGRPPRLPRPRPRPCIQPRP	-0.0256
RRIRKRPPRLPRPRPRPNSRPRP	0.149
RRIRERPPRLPRPRPRPDIFPRP	0.0405
RRIRLRPPRLPRPRPRPPNHPRP	-0.246
RRIRMRPPRLPRPRPRPGIAPRP	1.11
RRIRGRPPRLPRPRPRPQNAPRP	0.00487
RRIRDRPPRLPRPRPRPISDPRP	0.0148
RRIRLRPPRLPRPRPRPAFMPRP	-0.112
RRIRWRPPRLPRPRPRPECRPRP	0.88
RRIRARPPRLPRPRPRPCIVPRP	-0.233
RRIRVRPPRLPRPRPRPTDYPRP	-0.479

Sequence	shrunken log2 fold change
RRIRMRPPRLPRPRPRPPCTPRP	0.738
RRIRNRPPRLPRPRPRPAQYPRP	0.103
RRIRMRPPRLPRPRPRPEQAPRP	4.07
RRIRPRPPRLPRPRPRPQLFPRP	0.0893
RRIRCRPPRLPRPRPRPLQRPRP	0.203
RRIRGRPPRLPRPRPRPSWYPRP	-0.102
RRIRHRPPRLPRPRPRPFHKPRP	-0.0218
RRIRIRPPRLPRPRPRPKVSPRP	0.0423
RRIRLRPPRLPRPRPRPMVEPRP	-0.0178
RRIRQRPPRLPRPRPRPCHVPRP	-0.167
RRIRNRPPRLPRPRPRPRGMPRP	0.151
RRIRIRPPRLPRPRPRPTDTPRP	-1.86
RRIRVRPPRLPRPRPRPGDWPRP	0.432
RRIRERPPRLPRPRPRPTQCPRP	-0.133
RRIRNRPPRLPRPRPRPFCGPRP	-0.108
RRIRYRPPRLPRPRPRPWSGPRP	-0.184
RRIRVRPPRLPRPRPRPRFFPRP	0.287
RRIRLRPPRLPRPRPRPTEPPRP	0.0962
RRIRIRPPRLPRPRPRPNDYPRP	-0.312
RRIRNRPPRLPRPRPRPCMFPRP	-0.68
RRIRTRPPRLPRPRPRPEETPRP	0.0325
RRIRLRPPRLPRPRPRPTWFPRP	0.0207
RRIRSRPPRLPRPRPRPQMKPRP	-0.32
RRIRSRPPRLPRPRPRPVAVPRP	0.0198
RRIRKRPPRLPRPRPRPHCEPRP	0.177

Sequence	shrunken log2 fold change
RRIRYRPPRLPRPRPRPDPYPRP	-0.222
RRIRLRPPRLPRPRPRPDSLPRP	-0.335
RRIRFRPPRLPRPRPRPTPRPRP	0.803
RRIRLRPPRLPRPRPRPFMCPRP	-0.0925
RRIRDRPPRLPRPRPRPEDNPRP	1.31
RRIRGRPPRLPRPRPRPWGVPRP	0.287
RRIRFRPPRLPRPRPRPGFAPRP	0.374
RRIRFRPPRLPRPRPRPIDNPRP	2.36
RRIRSRPPRLPRPRPRPYYMPRP	-0.622
RRIRYRPPRLPRPRPRPMEEPRP	-0.138
RRIRERPPRLPRPRPRPHYHPRP	-0.356
RRIRLRPPRLPRPRPRPKNIPRP	-0.499
RRIRRRPPRLPRPRPRPAQCPRP	0.152
RRIRMRPPRLPRPRPRPLQCPRP	-0.0663
RRIRTRPPRLPRPRPRPHSEPRP	-0.0681
RRIRERPPRLPRPRPRPKCYPRP	-1.04
RRIRIRPPRLPRPRPRPWYIPRP	-0.0639
RRIRHRPPRLPRPRPRPRWVPRP	0.31
RRIRQRPPRLPRPRPRPQRHPRP	0.0218
RRIRGRPPRLPRPRPRPHAMPRP	0.171
RRIRTRPPRLPRPRPRPPNHPRP	-0.000973
RRIRTRPPRLPRPRPRPSGAPRP	0.251
RRIRFRPPRLPRPRPRPRGPPRP	0.763
RRIRTRPPRLPRPRPRPHNCPRP	-0.113
RRIRGRPPRLPRPRPRPHTIPRP	0.151
